# Experiment: soluble on expression in E. coli; label from the status in PepcDB or PDB records
row,Sequence,soluble on expression in E. coli
1,MRKSRDANPFKAMPNILYPDELMDKAYNRSEKIAGELRTTTRGLSTPKSKIIEDNKIRTTASVISDNLLKIVEKTPSIDNLDPFYREILEIMVGSDEFKKSLAAVQWASEIVKKLGTQYSRKVKKAPSPQATSIVRKEFIGRVSSVLKQIYPNMAFLGVARNKLKNIPTVKNLPSVVIAGYPNVGKSTLLRTLTDAEPEVNSYPFTTKGLNIGYTEEGIQIIDTPGVLDRPIYERNDIELHAVVAINYLSDMILFVIDPTEFCGFTMEEQFNLLQEIRKTFNVPILVALTKMDVDEIEGLDKLEEDLGEYEVLKVSSFKKEGIADLRERLLDILDEQGLMGLLEELEHHHHHH,soluble
2,SNASKGMALRSVGGMVIESPRNETEHWLLETVGRQAQQAGIGMPTVAIYDSADINAFATGAKRDDSLVAVSTGLLHNMTRDEAEAVLAHEVSHIANGDMVTMTLMQG,soluble
3,MRLLHTMLRVGDLQRSIDFYTKVLGMKLLRTSENPEYKYSLAFVGYGPETEEAVIELTYNWGVDKYELGTAYGHIALSVDNAAEACEKIRQNGGNVTREAGPVKGGTTVIAFVEDPDGYKIELIEEKDAGRGLGN,soluble
4,MFTGLVEETGEILKVEEGPFLRVYIGARKVLKDLKVGDSVAVDGACLTAVTVEEGGFWVELAQETLRRTAPTWRVGHRPNLERALKVGDRLGGHFVTGHVDGVARLWEVREAPGAKDFYFLPPKALAPYIAEKGSVALNGVSLTVAGLTGEAFWVTLIPHTLEVTNLGRLRVGDGVNLEVDLIARYVARLLGRA,soluble
5,MSLSNAVAQDLMTIADIVEATTTAPIPFHITAFDGSFTGPEDAPYQLFVANTDAVSYIATAPGDLGLARAYLMGDLIVEGEHPGHPYGIFDALKEFYRCFKRPDASTTLQIMWTLRKMNALKFQEIPPMEQAPAWRKALINGLASRHSKSRDKKAISYHYDVGNEFYSLFLDDSMTYTCAYYPTPESSLEEAQENKYRLIFEKLRLKEGDRLLDVGCGWGGMVRYAAKHGVKAIGVTLSEQQYEWGQAEIKRQGLEDLAEIRFMDYRDVPETGFDAISAIGIIEHIGVNNYPDYFELLSSKLKTGGLMLNHSITYPDNRPRHAGAFIDRYIFPDGELTGSGTLIKHMQDNGFEVLHEENLRFDYQRTLHAWCENLKENWEEAVELAGEPTARLFGLYMAGSEWGFAHNIVQLHQVLGVKLDEQGSRGEVPERMWWTEGHHHHHH,soluble
6,MSQWYELQQLDSKFLEQVHQLYDDSFPMEIRQYLAQWLEKQDWEHAANDVSFATIRFHDLLSQLDDQYSRFSLENNFLLQHNIRKSKRNLQDNFQEDPIQMSMIIYSCLKEERKILENAQRFNQAQSGNIQSTVMLDKQKELDSKVRNVKDKVMCIEHEIKSLEDLQDEYDFKCKTLQNREHETNGVAKSDQKQEQLLLKKMYLMLDNKRKEVVHKIIELLNVTELTQNALINDELVEWKRRQQSACIGGPPNACLDQLQNWFTIVAESLQQVRQQLKKLEELEQKYTYEHDPITKNKQVLWDRTFSLFQQLIQSSFVVERQPCMPTHPQRPLVLKTGVQFTVKLRLLVKLQELNYNLKVKVLFDKDVNERNTVKGFRKFNILGTHTKVMNMEESTNGSLAAEFRHLQLKEQKNAGTRTNEGPLIVTEELHSLSFETQLCQPGLVIDLETTSLPVVVISNVSQLPSGWASILWYNMLVAEPRNLSFFLTPPCARWAQLSEVLSWQFSSVTKRGLNVDQLNMLGEKLLGPNASPDGLIPWTRFCKENINDKNFPFWLWIESILELIKKHLLPLWNDGCIMGFISKERERALLKDQQPGTFLLRFSESSREGAITFTWVERSQNGGEPDFHAVEPYTKKELSAVTFPDIIRNYKVMAAENIPENPLKYLYPNIDKDHAFGKYYSR,soluble
7,MGSDKIHHHHHHMTVGTLPIWSKTFSYAIRSLCFLHIIHMYAYEFTETRGESMLPTLSATNDYVHVLKNFQNGRGIKMGDCIVALKPTDPNHRICKRVTGMPGDLVLVDPSTIVNYVGDVLVDEERFGTYIKVPEGHVWVTGDNLSHSLDSRTYNALPMGLIMGKIVAANNFDKPFWDGSIRNIWGFKWINNTFLDVQAKSN,not soluble
8,MVVVPHIDRQFLKDVEAVFTARARVNLPVPNPGLGTWVDRTTDTWFRFNHQLSVAIADILQRNFHYAWLTYQMILVVFKARWFFSSRHTLTVWTQFNLVARTLYRDDNSLE,not soluble
9,MLPFFKELQTCTEMLEKNPQDATALFQKAVLLYKARRFEAALQLIEQVLEIVPDDFRVWYNRGVVLSEMGRLEDALAAYDRVIELEPVFEMAWDNKGVVLARLGRFEEALETYEKVLLRNPKYAEAWAGKGSVLSALDRKEEALEAYLSALKIRPDYLEALKSVGSLFSRLGRYEEALAAYDTALQAAPEAPELWAGRGLVLSELDRQEEALQSCSRALELKPGFAPALEVKVKILSEIGRQKARASQLEHHHHHH,soluble
10,MGSDKIHHHHHHMNDLPLADLDAFATIARLRNFRAAGKLRGVSASSLSEAMRRLEARVGVRLLNRTTRSVTLTDAGARLLERLSPTLADIELALDDINQFRERPFGRLRLNVPGIVARCVLPPVVTGFLAAYPDILLEVTVNDALIDVLAEGCDAGIRYEEALHQDMIAVPIGPRRQRYVCVAAPSYLEQYGRPEHPRDLIHHRSILHRFNSGRVNEWHFEREGEAINVSPPPRLIAETVDLELAAVRAGLGMMGTFEDFVIEDLNAGRLERVLTDWEDEFSGPFLYYHSRRHMPVPLRVFVDYIRQHGDPG,not soluble
11,VTALDWRSALTADEQRSVRALVTATTAVDGVAPVGEQVLRELGQQRTEHLLVAGSRPGGPIIGYLNLSPPRGAGGAMAELVVHPQSRRRGIGTAMARAALAKTAGRNQFWAHGTLDPARATASALGLVGVRELIQMRRPLRDIPEPTIPDGVVIRTYAGTSDDAELLRVNNAAFAGHPEQGGWTAVQLAERRGEAWFDPDGLILAFGDSPRERPGRLLGFHWTKVHPDHPGLGEVYVLGVDPAAQRRGLGQMLTSIGIVSLARRLGGRKTLDPAVEPAVLLYVESDNVAAVRTYQSLGFTTYSVDTAYALAGTDN,not soluble
12,MNWEQKSSMLKKKIERIKEIETTLWGNLEKCELCPRKCGVDRYRTTGICGLPARAKISNAVLHFGEEPPISGKTGAGTVFFSGCNMKCVYCQNMGFSQKGIGTEVEVEDLAEIFLILQKHGAKTLNLVTPTPHLPFIISALRIAIENGLNLPIVYNTSGYEDPEILRLLEGVVDIYLSDVRYSDNEASKKYSKTPDYWTVVQKAIVEMFRQVGIFDEEKMKGLIVRILVLPGNVVDYSEIFSFLSSLSTRIPLSIMNQYIPHFDAQKFPEISRKLNQNEYEKILELAERYGFTEGWYQSEEKERVTTRGLKEISEKLQFLRLKTHNSY,not soluble
13,MFKLVGKEAFKVGDMKCIINVEALGTFAYEYSLDVNGKTFNKFKEEQNKRLHSWETTLSGHQWRVVLDKESMEIWANGNNIDTAGEFVDNGTVTHFELGKNPCKIIAQSSGKKKTGVTHTLYVNGEIVPSTVDKPNPSNQPGSS,not soluble
14,MDTHKVFVNRIINMRKIKLIGLDMDHTLIRYNSKNFESLVYDLVKERLAESFHYPEEIKKFKFNFDDAIRGLVIDSKNGNILKLSRYGAIRLSYHGTKQISFSDQKKIYRSIYVDLGDPNYMAIDTSFSIAFCILYGQLVDLKDTNPDKMPSYQAIAQDVQYCVDKVHSDGTLKNIIIKNLKKYVIREKEVVEGLKHFIRYGKKIFILTNSEYSYSKLLLDYALSPFLDKGEHWQGLFEFVITLANKPRFFYDNLRFLSVNPENGTMTNVHGPIVPGVYQGGNAKKFTEDLGVGGDEILYIGDHIYGDILRLKKDCNWRTALVVEELGEEIASQIRALPIEKKIGEAMAIKKELEQKYVDLCTRSIDESSQQYDQEIHDLQLQISTVDLQISRLLQEQNSFYNPKWERVFRAGAEESYFAYQVDRFACIYMEKLSDLLEHSPMTYFRANRRLLAHDIDIAAALEHHHHHH,soluble
15,SLFAKATRNFLREVDADGDLIAVSNLNDSDKLQLLSLVTKKKRFWCWQRPKYQFLSLTLGDVLIEDQFPSPVVVESDFVKYEGKFANHVSGTLETALGKVKLNLGGSSRVESQSSFGTLRKQEVDLQQLIRDSAERTINLRNPVLQQVLEGRNEVLCVLTQKITTMQKCVISEHMQVEEKCGGIVGIQTKTVQVSATEDGNVTKDSNVVLEIPAATTIAYGVIELYVKLDGQFEFCLLRGKQGGFENKKRIDSVYLDPLVFREFAFIDMPDAAHGISSQDGPLSVLKQATLLLERNFHPFAELPEPQQTALSDIFQAVLFDDELLMVLEPVCDDLVSGLSPTVAVLGELKPRQQQDLVAFLQLVGCSLQGGCPGPEDAGSKQLFMTAYFLVSALAEMPDSAAALLGTCCKLQIIPTLCHLLRALSDDGVSDLEDPTLTPLKDTERFGIVQRLFASADISLERLKSSVKAVILKDSKVFPLLLCITLNGLCALGREHSEG,not soluble
16,VTLNTIALELVPPNLEGGKERAIEDARKVVQYSAASGLDGRIRHVMMPGMIAEDDDRPIPMQPKLDVLDFWSIIKPELAGVHGLCTQVTAFMDEPSLHRRLVDLSDAGMEGIVFVGVPRTMQDGEGSGVAPTDALSLYRQLVANRGVIVIPTRDGEQGRLNFKCSRGATYGMTQLLYSDAIVGFLREFARTTEHRPEILLSFGFVPKVETRIGLINWLIQDPGNAAVADEQAFVQKLAGSEPARRRRLMVDLYKRVLDGVADLGFPLSIHLEATYGVSAAAFETFAEMLAYWSPAEPGKPD,not soluble
17,MNPIPADVAAVVLAGGVGRRFGRPKALAMMDGISLVERAVEALSSGPADVYVSVSPALERPVARLVGSRRVIVDLVEQAPCEGPLRAFLTAASTLVSYSNLVFMPVDAPWASWRDLEPIYNASKAIGSGASYFSGEGIVHPLFLAARRKSLLTAAWTACWGRAEKRASAILRSLDPLILLGSSETRSPLALATVNTPQDLWRPSRVPAPAEGYILLEGHSILYKISSTMNSYYSALALEAEYKLYRRLGLLRLASHVLKDAAALNVSTSLIQQESMAGGLGLEHHHHHH,not soluble
18,MGLMHPRQLLTLPNGDVLVVEANSPGTVPITSPKQMIASIVKDRSGKGGKGGNRITLLRKAAGQSGKWEKYVFIENLHSPFGVQLIGDTLYVANTGNIMKYRYTPGETRMSDPGVEFTDLPSTVNHHWTKALLASPDGKKLYVGVGSNSNVAENGLDIEYRRATVLEVDVQSAASRIYASGIRNPTGLGWEPTTGKLWAIVNERDEIGADLVPDYLTSVQEGGFYGWPYSYYGQYVDQRVQPQRPDLVARAIRPDYALGSHVAPLGLWFYQGRNLPEKYHGGAFIGQHGSWNRIPLSGYDVVFVRFKDGKPEGVPEPVVTGFTSADQKTLKGAPVGLAEDAEGALLIADDVGNTIWRVTARGLEHHHHHH,not soluble
19,MGSDKIHHHHHHMYSDLNEGVKPYRMTKSHKNIKQCDLLIAGGAAVGLTLAIALKQAAPELKINIVDAAPQEVIPVSNIRALALAAASIRMLKQLQCWEHIAPHAQPIHSMIITDAYTNDPVKPTLLTFEGDITPNEPFAAMVEHKELLNALKKRAKDLDIPFITNMRIVDFHQEDQHTTVTLSNKEIWQTKLLIAADGAHSKLREKAGLKKFSHSYTQTAIICTVEHEKPHHGQAIQHFLPAGPFALLPLKGNRSAIVWNEDHKTAQYYLKADALIFETEIEKRIGHRYGKLSWNGERQGFPLNLSLTRQCIKPRFALIGDAAHTIHPLAGQGLNLGLRDSAALAEVIIETARLGLDIGSLTALERYQSWRRFEIVRMALSNDWLNKLFSNDNLLLRTLRDVGLGIVNQTPKVKKYFIQEAAGLTPHAPRLLHGLPL,not soluble

# Reference: the DeepSol protein solubility set
